Data from paper doi:10.1101/2020.11.05.369280 (bioRxiv, 2020).

Molecular target: EIIA^Glc (UniProt P69783 2-169)
Assay: SPR + ELISA

EIIA^Glc, sequence (P69783 2-169): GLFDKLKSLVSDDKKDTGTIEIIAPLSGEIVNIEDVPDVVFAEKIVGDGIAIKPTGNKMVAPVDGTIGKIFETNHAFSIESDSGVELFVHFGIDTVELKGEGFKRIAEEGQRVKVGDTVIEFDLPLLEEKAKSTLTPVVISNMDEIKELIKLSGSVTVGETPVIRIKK

B1: EIIB^Glc (domain or fragment)
chain: EDATEDAKATGTSEMAPALVAAFGGKENITNLDACITRLRVSVADVSKVDQAGLKKLGAAGVVVAGSGVQAIFGTKSDNLKTEMDEYIRN
  Kd: > 10 µM
